Biological target: biotin-labeled HNRNPA1 peptide carrying R194 symmetric dimethylation (SDMA)
Test: BLI; Octet-RED96; biotinylated R194 SDMA HNRNPA1 peptide immobilised on streptavidin biosensors at 10 µg/mL; ZMYND11-MYND serially diluted three-fold from 333 nM in PBST; 300 s association, 300 s dissociation; 1:1 binding model

Substance: His-tagged recombinant MYND domain of ZMYND11 (domain or fragment)
- Kd: 3.5 nM
